The source of these data is US20140120095A1 (Boehringer Ingelheim, published 2014).

The target in test [1] is T1, recombinant human DLL4 (human, UniProt Q9NR61 25-522).
T1 construct: also called rhDLL4; hDLL4
As to the kind of experiment: binding ELISA, coated rhDLL4. The procedure: (§1) In order to determine cross-reactivity to mouse DII4 a binding ELISA is performed. […] Wells are blocked with a casein solution (1% in PBS). VHHs are applied as dilution series and binding is detected using a mouse anti-myc (Roche) and an anti-mouse-AP conjugate (Sigma, St Louis, Mo., USA) (FIG. 7 A-H). As reference, binding to human DII4 is measured.

In test [2] the target is T2, recombinant mouse DLL4 (mouse, UniProt Q9JI71 27-532).
T2 construct: extracellular domain; also called rmDLL4; mDLL4
As to the kind of experiment: binding ELISA, coated rmDLL4. How it is done:
as §1

The target of test [3] is T3, human DLL4 overexpressed on cells (human, UniProt Q9NR61 27-685).
T3 construct: full length human DLL4 on CHO or HEK293 cells; also called CHO-hDLL4; CHO-hDII4
The test is described as follows: competitive FMAT, hNotch1-Fc on CHO-hDLL4.

Test [4] deals with T4, mouse DLL4 overexpressed on cells (mouse, UniProt Q9JI71 27-686).
T4 construct: whole, on cells; also called CHO-mDLL4; CHO-mDII4
The test is described as follows: competitive FMAT, hNotch1-Fc on CHO-mDLL4.

In test [5] the target is T1, recombinant human DLL4. The test is described as follows: competition AlphaScreen, biot-hDLL4/hNotch1-Fc. The procedure:
In brief, 1 nM biotinylated human DII4 is captured on streptavidin-coated donor beads (20 μg/mL), while 0.4 nM of the receptor human Notch1 (as a Fc fusion protein) is captured on anti-human Fc VHH-coated acceptor beads (20 μg/mL). Both loaded beads are incubated together with a dilution range of the competing VHH (FIG. 4 A-E).
A general note: In Alpha technology, singlet oxygen from a donor bead excites a nearby acceptor bead.

Test [6] deals with T3, human DLL4 overexpressed on cells. The test is described as follows: FACS titration on HEK293-hDLL4 cells, MCF. How it is done:
(§2) In order to determine the cynomologus cross-reactivity of the VHHs, a FACS binding experiment is performed. Cynomolgus DII4 expressing HEK293 cells (transient or stable transfection) are used for a titration binding experiment of the VHHs. After a 30 minutes incubation on ice, all samples are washed and detection is performed by applying anti-c-myc˜Alexa647 (Santa Cruz Biotechnology, Santa Cruz, Calif., USA). Human and mouse DII4 overexpressing HEK293 cells are taken as reference. The mean MCF value is determined on the FACS Array and used for calculation of the EC₅₀ value (see FIG. 9 A-E).

The target of test [7] is T5, cynomolgus DLL4 overexpressed on cells (cynomolgus, UniProt Q9NR61 27-685 (human entry)).
T5 construct: also called cyno DII4; cDLL4
T5 chain: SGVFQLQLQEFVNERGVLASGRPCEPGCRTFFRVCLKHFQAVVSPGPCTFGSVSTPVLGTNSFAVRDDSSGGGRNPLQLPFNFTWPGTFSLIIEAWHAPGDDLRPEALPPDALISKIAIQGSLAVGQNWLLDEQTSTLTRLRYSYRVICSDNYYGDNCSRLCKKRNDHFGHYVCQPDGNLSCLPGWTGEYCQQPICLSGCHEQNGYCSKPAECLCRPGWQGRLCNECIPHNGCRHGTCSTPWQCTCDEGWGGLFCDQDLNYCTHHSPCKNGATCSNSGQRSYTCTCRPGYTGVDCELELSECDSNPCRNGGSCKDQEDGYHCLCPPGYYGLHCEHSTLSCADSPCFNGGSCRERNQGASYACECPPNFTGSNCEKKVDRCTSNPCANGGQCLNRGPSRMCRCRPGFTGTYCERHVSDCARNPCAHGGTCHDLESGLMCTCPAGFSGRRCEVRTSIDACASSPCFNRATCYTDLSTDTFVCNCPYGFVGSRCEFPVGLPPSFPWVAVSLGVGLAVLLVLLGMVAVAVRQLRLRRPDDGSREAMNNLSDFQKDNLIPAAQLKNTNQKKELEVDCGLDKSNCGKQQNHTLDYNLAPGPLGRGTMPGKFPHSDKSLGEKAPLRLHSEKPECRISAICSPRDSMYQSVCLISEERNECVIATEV
As to the kind of experiment: FACS titration on HEK293-cDLL4 cells, MCF. How it is done:
as §2

For test [8], the target named is T1, recombinant human DLL4. As to the kind of experiment: competition ELISA, biot-hDLL4 to coated hNotch1-Fc. The text has this:
Residual binding of biotinylated human DII4 is detected using horseradish peroxidase (HRP) conjugated extravidin (Sigma, St. Louis, Mo., USA) (FIG. 3 A-C). Human DII4 is biotinylated as described above.
A general note: In an ELISA, binding on a coated surface is turned into a signal by an enzyme label.

The target in test [9] is T6, human DLL1 (human, UniProt O00548 18-545, limits assumed).
T6 construct: also called hDLL1
T6 sequence (looked up): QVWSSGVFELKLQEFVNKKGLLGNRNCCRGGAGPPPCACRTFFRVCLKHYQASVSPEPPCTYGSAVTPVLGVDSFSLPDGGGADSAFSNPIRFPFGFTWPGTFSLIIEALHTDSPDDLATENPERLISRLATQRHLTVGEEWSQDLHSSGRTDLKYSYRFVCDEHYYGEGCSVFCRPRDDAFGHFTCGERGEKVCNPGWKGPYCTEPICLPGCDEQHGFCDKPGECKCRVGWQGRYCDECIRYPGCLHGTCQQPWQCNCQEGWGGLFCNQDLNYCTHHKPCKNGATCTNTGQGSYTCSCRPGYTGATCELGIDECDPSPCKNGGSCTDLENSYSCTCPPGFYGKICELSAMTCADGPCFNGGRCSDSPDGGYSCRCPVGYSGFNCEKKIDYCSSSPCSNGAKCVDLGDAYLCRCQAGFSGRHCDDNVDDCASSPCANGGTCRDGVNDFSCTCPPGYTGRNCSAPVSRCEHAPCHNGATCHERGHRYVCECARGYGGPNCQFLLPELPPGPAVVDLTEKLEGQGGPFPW
The test is described as follows: binding ELISA on coated recombinant human DLL1, OD 405 nm. How it is done:
(§3) Absence of binding to homologous ligands human DLL1 and human Jagged-1 is assessed via solid phase binding assay (ELISA). In brief, human DLL1 (Alexis, San Diego, Calif., USA) and human Jagged-1 (Alexis, San Diego, Calif., USA) are coated overnight at 4° C. at 1 μg/mL in a 96-well MaxiSorp plate (Nunc, Wiesbaden, Germany). Wells are blocked with a casein solution (1% in PBS). VHHs are applied as dilution series and binding is detected using a mouse anti-myc (Roche) and an anti-mouse-AP conjugate (Sigma, St. Louis, Mo., USA).

The target in test [10] is T7, human Jagged-1 (human, UniProt P78504 34-1067, limits assumed).
T7 construct: also called hJagged-1; hJAG1
As to the kind of experiment: binding ELISA on coated recombinant human Jagged-1, OD 405 nm. The procedure: as §3

For test [11], the target named is T1, recombinant human DLL4. The test is described as follows: SPR Biacore T100, hDLL4 on chip, VHH/Fab injected. How it is done: (§4) Kinetic analysis to determine the affinity of the DII4-VHH interaction is performed by Surface Plasmon Resonance (SPR) on a Biacore T100 instrument. […] Purified VHHs or Fab fragment are injected for 2 minutes at different concentrations (between 10 and 300 nM) and allowed to dissociate for 20 min at a flow rate of 45 μl/min. Between sample injections, the surfaces are regenerated with 10 mM glycine pH1.5 and 100 mM HCl. HBS-N (Hepes buffer pH7.4) is used as running buffer. If possible, data are evaluated by fitting a 1:1 interaction model (Langmuir binding) onto the binding curves. The affinity constant KD is calculated from resulting association and dissociation rate constants (kₐ) and […].
(In general: SPR reads the build-up and loss of mass on a sensor chip optically.)

In test [12] the target is T8, recombinant human DLL4 (C-terminally His-tagged extracellular domain, R&D Systems) (human, UniProt Q9NR61 25-522, biotinylated in the competition ELISA).
T8 construct: also called rhDLL4; hDLL4
As to the kind of experiment: SPR (Biacore), recombinant human DLL4. How it is done: as §4

The target in test [13] is T9, human DLL4 expressed on cells (CHO-hDLL4; HEK293-hDLL4) (human, UniProt Q9NR61 27-685).
T9 construct: full length human DLL4 overexpressed on CHO cells (FMAT, FACS) or HEK293 cells (reporter assay)
As to the kind of experiment: competition FMAT, labelled hNotch1-Fc on CHO-hDLL4 cells.

Test [14] addresses T9, human DLL4 expressed on cells …. As to the kind of experiment: cell-based or functional assay.
The target of test [15] is T8, recombinant human DLL4 (C-terminally …). The test is described as follows: competition ELISA hDLL4/hNotch1-Fc; summary table.
Test [16] has the same target. The test is described as follows: competition ELISA, biotinylated hDLL4 to coated hNotch1-Fc.

T2 sequence (Q9JI71 27-532): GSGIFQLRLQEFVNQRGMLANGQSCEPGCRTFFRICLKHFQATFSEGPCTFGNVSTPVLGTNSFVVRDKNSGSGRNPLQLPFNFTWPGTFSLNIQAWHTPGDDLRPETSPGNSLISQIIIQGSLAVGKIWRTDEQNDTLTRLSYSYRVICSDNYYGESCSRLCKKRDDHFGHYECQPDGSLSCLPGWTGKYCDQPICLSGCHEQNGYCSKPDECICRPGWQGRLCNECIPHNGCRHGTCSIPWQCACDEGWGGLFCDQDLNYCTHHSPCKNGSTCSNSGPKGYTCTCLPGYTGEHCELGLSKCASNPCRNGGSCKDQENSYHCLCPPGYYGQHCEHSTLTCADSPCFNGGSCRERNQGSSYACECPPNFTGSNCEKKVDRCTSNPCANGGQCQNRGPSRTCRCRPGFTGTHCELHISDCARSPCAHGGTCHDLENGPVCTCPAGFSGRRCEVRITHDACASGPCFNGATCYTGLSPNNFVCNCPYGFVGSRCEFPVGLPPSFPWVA
T4 sequence (Q9JI71 27-686): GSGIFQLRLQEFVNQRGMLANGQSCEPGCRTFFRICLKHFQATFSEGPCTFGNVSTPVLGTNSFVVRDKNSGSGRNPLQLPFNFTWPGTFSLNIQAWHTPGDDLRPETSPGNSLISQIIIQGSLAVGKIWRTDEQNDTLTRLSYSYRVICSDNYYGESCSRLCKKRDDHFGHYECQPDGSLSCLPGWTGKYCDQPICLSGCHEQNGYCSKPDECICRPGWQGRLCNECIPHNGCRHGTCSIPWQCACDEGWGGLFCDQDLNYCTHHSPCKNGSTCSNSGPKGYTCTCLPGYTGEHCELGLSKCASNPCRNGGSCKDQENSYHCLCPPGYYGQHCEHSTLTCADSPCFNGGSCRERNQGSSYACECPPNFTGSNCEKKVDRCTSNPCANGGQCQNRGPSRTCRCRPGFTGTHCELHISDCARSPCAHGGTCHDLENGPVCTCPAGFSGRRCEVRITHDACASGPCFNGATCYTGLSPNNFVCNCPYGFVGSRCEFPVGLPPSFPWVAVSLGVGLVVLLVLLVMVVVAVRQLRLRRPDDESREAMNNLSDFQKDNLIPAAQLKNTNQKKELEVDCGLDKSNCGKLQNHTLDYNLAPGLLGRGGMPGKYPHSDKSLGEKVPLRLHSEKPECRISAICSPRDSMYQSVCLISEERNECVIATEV

B1: DLLBII55D12 (VHH)
VHH: EVQLVESGGGLVQPGGSLRLSCAASGFTFDDYAIGWFRQAPGKEPEGISCISSSGGITYYADSVKGRFTISRDNAKNTVYLQMNSLKPEDTAVYYCATPGIAACRGIHYTGQGTQVTVSS
The term EC50 denotes the midpoint of the concentration-response curve. The IC50 is the concentration at which inhibition is half-maximal. As usually defined, the EC50 (read off the curve) is the concentration that produces a half-maximal response. Turning to B1, the results for the EC50 in [1] and in [2] were 13.1 nM and 30 nM, respectively. In addition, the IC50 amounted to 39.1 nM in test [3], 41 nM in [4], 2.3 nM in test [5] and 12.3 nM in test [8]. Also, the concentration giving a half-maximal response (EC50 (read off the curve)) in test [6] was approximately 7 nM; in [7], approximately 6 nM. For the same molecule, the binding result in test [9] and in test [10] was “no binding (tested: 2.5e-7 M)” in each case.

B2: DLLBII56H08 (VHH)
VHH: EVQLVESGGGLVQPGGSLRLSCAASGFTFDDYAIGWFRQAPGKEPEEISCISSSGGITYYADSVKGRFTISRDNAKNTVYLQMNSLKPEDTAVYYCATPGIAACRGIHYTGQGTQVTVSS
Usually Kd stands for the constant that tells how readily two partners part at equilibrium. By koff is commonly meant a measure of how fast the partners let go of each other. Broadly, the kon is a measure of how fast the partners come together. B2: the EC50 in [1] stood at 4.1 nM; in test [2], 8.7 nM. Also, the IC50 in [3] is 22 nM; in [4], 33.7 nM; in [5], 1.6 nM; in test [8], 6.9 nM. The Kd in test [11] is 9.4 nM. Moreover, in test [11], the koff worked out at 0.0011 s⁻¹. Also, the on-rate (kon) in [11] is 120000 M⁻¹ s⁻¹. Moreover, the 50% effective concentration (EC50 (read off the curve)) in test [6] is approximately 7 nM; in test [7] it was approximately 4 nM. Besides, in [10], the binding result is listed as “no binding (tested: 2.5e-7 M)”.

B3: DLLBII019 (VHH, not shown: small tags and cut ends)
VHH: EVQLVESGGGLVQPGGSLRLSCAASGFTFGSYDMSWVRRSPGKGPEWVSSINSGGGSTYYADYVKGRFTISRDNAKNTLYLQMNSLRPEDTAVYYCAADRYIWARQGEYWGAYEYDYWGQGTLVTVSS
Regarding B3, in test [12], the dissociation constant Kd was determined as 1.3 nM, the off-rate constant (koff) is 0.00074 s⁻¹ and the kon is 570000 M⁻¹ s⁻¹. Moreover, the concentration for half-maximal inhibition (IC50) in [13] stood at 3 nM.

B4: DLLBII134D10 (VHH, not shown: small tags and cut ends)
VHH: EVQLVESGGGLVQPGGSLRLSCAASGFTIGSYDMSWVRRSPGKGPEWVSSINSGGGSTYYTDYVKGRFTISRDNAKNTLYLQMNSLKPEDTAVYYCAADRYIWARQGEYWGAYAYDYWGQGTQVTVSS
Regarding B4, in test [14], the “IC50, DLL4-mediated reporter assay” value is 18 nM. Further, the IC50 in [15] and in test [16] was 1.3 nM each time.

B5: DLLBII022 (VHH, not shown: small tags and cut ends)
VHH: EVQLVESGGGLVQPGGSLRLSCAASGFTFGSYDMSWVRQAPGKGPEWVSSINSGGGSTYYADYVKGRFTISRDNAKNTLYLQMNSLRPEDTAVYYCAADRYIWARQGEYWGAYEYDYWGQGTLVTVSS
For B5, in test [12], the dissociation constant Kd turned out to be 46 nM, the koff stood at 0.022 s⁻¹ and the kon was found to be 470000 M⁻¹ s⁻¹. Also, the IC50 in test [13] was 95.4 nM.

B6: DLLBII020 (VHH, not shown: small tags and cut ends)
VHH: EVQLVESGGGLVQPGGSLRLSCAASGFTFGSYDMSWVRQSPGKGPEWVSSINSGGGSTYYADYVKGRFTISRDNAKNTLYLQMNSLRPEDTAVYYCAADRYIWARQGEYWGAYEYDYWGQGTLVTVSS
On to B6, for which, in test [12], the Kd amounted to 27 nM, the off-rate (koff) amounted to 0.0093 s⁻¹ and the association rate constant (kon) is 340000 M⁻¹ s⁻¹. Also, in test [13], the half-inhibitory concentration (IC50) came out at 44.6 nM.

B7: DLLBII021 (VHH, not shown: small tags and cut ends)
VHH: EVQLVESGGGLVQPGGSLRLSCAASGFTFGSYDMSWVRRAPGKGPEWVSSINSGGGSTYYADYVKGRFTISRDNAKNTLYLQMNSLRPEDTAVYYCAADRYIWARQGEYWGAYEYDYWGQGTLVTVSS
With B7, in test [12], the Kd came to 1 nM, the koff came to 0.00057 s⁻¹ and the kon came out at 560000 M⁻¹ s⁻¹. Further, the IC50 in [13] is 2.1 nM.
